The values that follow come from patent US20220185901A1 (Bayer, published 2022).

The target in experiment [1] is T1, BMPR-2-FcHis6 (TPP-11725) (human).
T1 construct: also called human BMPR-2
Nature of the experiment: SPR, Biacore T200, antigen amine-coupled to the chip, antibody injected at 1.56-200 nM, 1:1 Langmuir fit, 25 C. How it is done: (§1) SPR experiments for quantitative binding analyses were performed using a Biacore T200 instrument (GE Healthcare Biacore, Inc.) equipped with Series S Sensor Chips CMS (GE Healthcare Biacore, Inc.). Binding assays were carried out at 25° C. with assay buffer HBS-EP+ (10 mM HEPES pH 7.4, 150 mM NaCl, 3 mM EDTA, 0.05% Surfactant P20). Antigens were covalently immobilized to the chip surface via amine coupling chemistry. The same proteins that had previously been used to isolate the antibodies of the invention during panning and screening [murine ALK-1-Fc SEQ ID NO: 114, human ALK-1-Fc SEQ ID NO: 116, as well as BMPR-2-Fc SEQ ID NO: 115 (human and murine extracellular are identical)] were used here as […] to determine KD values. Reagents for amine coupling (1-ethyl-3-(3-dimethylaminopropyl) carbodiimide hydrochloride (EDC), N-hydroxysuccinimide (NHS), ethanolamine-HCl pH 8.5) were used from the Amine Coupling Kit (GE Healthcare, product code BR-1000-50). The sensor chip surface was activated with a freshly prepared solution of 0.2 M EDC and 0.05 M NHS passed over the chip surface for 420 seconds at a flow rate of 10 μl/min, followed by an injection of antigen (dissolved to 0.5 μg/ml in immobilization buffer, 10 mM sodium acetate pH 5.0) with a target level of 50 RU. Excess of activated groups were blocked with a 1 molar solution of ethanolamine injected at a flow rate of 10 μl/min for 420 seconds.
(§2) The sensor surface was regenerated for 20 seconds with regeneration solution (glycine-HCl pH 1.5) after each assay cycle consisting of a single analyte injection.
(§3) Obtained sensorgrams were double-referenced, (reference cell correction followed by buffer sample subtraction). KD values were calculated based on the ratio of dissociation (kd) and association (kₐ) rate constants which were obtained by globally fitting sensorgrams with a first order 1:1 Langmuir binding model, implemented in the Biacore Evaluation Software Package (Biacore T200 Evaluation Software Version 2.0, GE Healthcare Biacore, Inc.).

Experiment [2] deals with T2, murine ALK-1-Fc (TPP-11724) (murine).
T2 construct: also called mouse ALK-1
The experiment is described as above. Here is the method:
as §1, §2, §3

In experiment [3] the target is T3, human ALK-1-Fc (TPP-11726) (human).
T3 construct: Used for panning, screening and SPR; also called hALK-1-Fc
The experiment is described as above. How it is done: as §1, §2, §3

Experiment [4] concerns the target T4, hActivin RIA/ALK-2 Fc Chimera (TPP-17233) (human, UniProt Q04771 23-123).
T4 construct: also called human ALK-2-Fc
T4 sequence: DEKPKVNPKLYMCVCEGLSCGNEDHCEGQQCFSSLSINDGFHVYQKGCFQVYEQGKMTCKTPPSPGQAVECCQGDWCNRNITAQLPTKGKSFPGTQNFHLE
The experiment can be described thus: ELISA: human ALK-2-Fc coated at 2 µg/ml, TPP-14696 titrated, detected with anti-human IgG2 (Fc specific) then anti-mouse IgG-HRP; readout Relative Fluorescence Units. How it is done: (§4) Antigens human ALK-1-Fc and human ALK-2-Fc were coated at 2 μg/ml and binding of TPP-14696 and TPP-14719 was detected by anti-human IgG2 (Fc specific) antibody (Sigma 19513) followed by anti-mouse IgG (whole molecule)—HRP (Sigma A9044, 1:40000).
(§5) In order to determine the selectivity for the ALK-1/BMPR-2 receptor complex compared to the ALK-2/BMPR-2 receptor, the specificity of the agonistic antibodies has been evaluated by ELISA (FIG. 9). The antigens human ALK-1-Fc and human ALK-2-Fc were coated at 2 μg/ml and binding of TPP-14696 and TPP-14719 was detected by anti-human IgG2 (Fc specific) antibody (Sigma 19513) followed by anti-mouse IgG (whole molecule)—HRP (Sigma A9044, 1:40000).

Experiment [5] has as its target ALK-1/BMPR-2 receptor pair on PathHunter U2OS ALK-1/BMPR-2 dimerization cells (DiscoverX 93-0962C3) (UniProt P37023 22-503; Q13873 27-1038). The experiment can be described thus: cell-based or functional assay.
Experiment [6] has as its target T3, human ALK-1-Fc (TPP-11726). The experiment can be described thus: ELISA: human ALK-1-Fc coated at 2 µg/ml, TPP-14696 titrated, detected with anti-human IgG2 (Fc specific) then anti-mouse IgG-HRP; readout Relative Fluorescence Units. How it is done:
as §4, §5
A general note: In an ELISA, binding on a coated surface is turned into a signal by an enzyme label.

T3 sequence (chain, as listed by the source limits assumed): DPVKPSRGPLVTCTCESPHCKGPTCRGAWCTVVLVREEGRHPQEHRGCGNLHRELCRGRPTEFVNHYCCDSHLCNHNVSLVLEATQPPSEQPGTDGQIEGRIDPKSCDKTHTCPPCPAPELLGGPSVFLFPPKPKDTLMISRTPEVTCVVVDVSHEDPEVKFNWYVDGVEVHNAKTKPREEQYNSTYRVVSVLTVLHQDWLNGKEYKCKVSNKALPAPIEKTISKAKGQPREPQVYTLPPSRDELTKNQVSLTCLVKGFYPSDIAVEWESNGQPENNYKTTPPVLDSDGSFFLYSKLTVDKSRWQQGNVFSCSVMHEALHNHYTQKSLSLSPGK
T2 sequence (chain, as listed by the source limits assumed): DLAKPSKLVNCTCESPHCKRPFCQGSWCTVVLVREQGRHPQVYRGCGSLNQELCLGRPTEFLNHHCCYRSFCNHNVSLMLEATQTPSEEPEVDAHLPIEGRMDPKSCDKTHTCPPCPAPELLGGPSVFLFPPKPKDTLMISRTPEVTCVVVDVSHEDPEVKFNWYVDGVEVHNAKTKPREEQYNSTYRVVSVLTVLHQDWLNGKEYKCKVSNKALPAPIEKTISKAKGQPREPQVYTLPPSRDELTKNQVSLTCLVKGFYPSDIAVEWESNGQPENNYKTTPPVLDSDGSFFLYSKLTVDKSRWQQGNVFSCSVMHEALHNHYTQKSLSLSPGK
T1 sequence (chain, as listed by the source limits assumed): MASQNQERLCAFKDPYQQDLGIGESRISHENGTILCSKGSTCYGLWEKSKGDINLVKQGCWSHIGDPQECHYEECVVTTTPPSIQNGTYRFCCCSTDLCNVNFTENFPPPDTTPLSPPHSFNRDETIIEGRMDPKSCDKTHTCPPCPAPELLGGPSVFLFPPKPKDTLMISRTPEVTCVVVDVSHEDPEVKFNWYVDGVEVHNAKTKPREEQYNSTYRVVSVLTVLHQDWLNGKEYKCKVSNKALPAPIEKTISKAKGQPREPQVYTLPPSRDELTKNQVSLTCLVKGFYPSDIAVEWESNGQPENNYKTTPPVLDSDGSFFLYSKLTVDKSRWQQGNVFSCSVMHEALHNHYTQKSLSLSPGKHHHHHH
ALK-1/BMPR-2 receptor pair on PathHunter U2OS ALK-1/BMPR-2 dimerization cells (DiscoverX 93-0962C3), sequence (P37023 22-503, chain 1 of 2): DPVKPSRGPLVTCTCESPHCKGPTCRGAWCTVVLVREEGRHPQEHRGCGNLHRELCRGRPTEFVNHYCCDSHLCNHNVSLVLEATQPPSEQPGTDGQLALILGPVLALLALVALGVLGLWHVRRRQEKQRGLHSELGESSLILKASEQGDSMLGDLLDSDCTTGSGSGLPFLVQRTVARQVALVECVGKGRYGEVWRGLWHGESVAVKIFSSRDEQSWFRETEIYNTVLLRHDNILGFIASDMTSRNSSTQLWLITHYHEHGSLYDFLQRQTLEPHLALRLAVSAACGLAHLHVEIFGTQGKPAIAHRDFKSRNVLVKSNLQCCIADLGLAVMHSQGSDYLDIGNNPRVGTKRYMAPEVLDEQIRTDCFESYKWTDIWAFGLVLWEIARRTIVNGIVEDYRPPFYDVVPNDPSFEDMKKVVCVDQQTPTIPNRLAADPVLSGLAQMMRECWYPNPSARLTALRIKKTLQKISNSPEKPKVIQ
ALK-1/BMPR-2 receptor pair on PathHunter U2OS ALK-1/BMPR-2 dimerization cells (DiscoverX 93-0962C3), sequence (Q13873 27-1038, chain 2 of 2): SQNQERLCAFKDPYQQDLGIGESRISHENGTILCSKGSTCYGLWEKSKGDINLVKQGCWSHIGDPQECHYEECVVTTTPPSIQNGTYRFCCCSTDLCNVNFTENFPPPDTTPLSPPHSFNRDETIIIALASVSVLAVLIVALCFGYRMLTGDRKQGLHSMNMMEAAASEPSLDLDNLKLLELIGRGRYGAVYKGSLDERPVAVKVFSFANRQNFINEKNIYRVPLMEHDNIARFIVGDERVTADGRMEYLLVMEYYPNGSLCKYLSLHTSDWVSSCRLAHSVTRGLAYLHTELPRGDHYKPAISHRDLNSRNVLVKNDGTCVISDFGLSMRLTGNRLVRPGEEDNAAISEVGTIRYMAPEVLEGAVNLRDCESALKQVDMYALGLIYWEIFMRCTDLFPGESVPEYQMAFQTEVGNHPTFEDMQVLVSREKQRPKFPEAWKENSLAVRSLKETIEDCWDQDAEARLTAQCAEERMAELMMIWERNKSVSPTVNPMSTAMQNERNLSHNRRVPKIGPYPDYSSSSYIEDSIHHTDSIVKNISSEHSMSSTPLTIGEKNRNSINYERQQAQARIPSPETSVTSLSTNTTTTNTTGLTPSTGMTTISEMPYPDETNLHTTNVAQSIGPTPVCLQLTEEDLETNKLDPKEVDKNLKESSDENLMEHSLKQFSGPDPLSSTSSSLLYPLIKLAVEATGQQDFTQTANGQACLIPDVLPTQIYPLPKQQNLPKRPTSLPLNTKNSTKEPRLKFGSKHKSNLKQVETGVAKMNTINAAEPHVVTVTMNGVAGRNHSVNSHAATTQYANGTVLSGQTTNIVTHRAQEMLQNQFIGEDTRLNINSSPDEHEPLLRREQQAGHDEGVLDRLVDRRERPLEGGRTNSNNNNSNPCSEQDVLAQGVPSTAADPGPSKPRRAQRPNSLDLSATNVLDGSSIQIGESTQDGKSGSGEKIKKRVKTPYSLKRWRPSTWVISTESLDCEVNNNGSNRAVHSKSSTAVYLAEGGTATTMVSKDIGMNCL

B1: TPP-13469 (484A-M010-C06-scFv-Fc-hIgG2) (Fc fusion)
chain: EVQLLESGGGLVQPGGSLRLSCAASGFTFSDYYMTWIRQAPGKGLEWVSSISGGSTYYADSRKGRFTISRDNSENTLYLQMNSLRAEDTAVYYCARDFGVAGWFGQYGMDVWGQGTLVTVSSGGGGSGGGGSGGGGSQSVLTQPPSASGTPGQRVTISCTGSSSNIGAGYDVHWYQQLPGTAPKLLIYRSNQRPSGVPDRFSGSKSGTSASLAISGLRSEDEADYYCSSYAGNYNLVFGGGTKLTVLGGGGSGGGGSGGGGSGVECPPCPAPPVAGPSVFLFPPKPKDTLMISRTPEVTCVVVDVSHEDPEVQFNWYVDGVEVHNAKTKPREEQFNSTFRVVSVLTVVHQDWLNGKEYKCKVSNKGLPAPIEKTISKTKGQPREPQVYTLPPSREEMTKNQVSLTCLVKGFYPSDIAVEWESNGQPENNYKTTPPMLDSDGSFFLYSKLTVDKSRWQQGNVFSCSVMHEALHNHYTQKSLSLSPG
notes: Monospecific antibody (MsAB) against BMPR-2; the construct name says scFv-Fc-hIgG2; not shown: human IgG2 Fc (and any linker), implied by the construct name scFv-Fc-hIgG2
In general, Kd refers to the equilibrium constant for the complex coming apart. A lower Kd goes with tighter binding. Molecule B1 displayed a dissociation constant Kd in experiment [1] of 6.2 nM.

B2: TPP-13660 (484A-M232-A14-scFv-Fc-hIgG2) (Fc fusion)
chain: EVQLLESGGGLVQPGGSLRLSCAASGFTFSSYAMSWVRQAPGKGLEWVANINQDGSEKNYVDSMRGRFTISRDNSKNTLYLQMNSLRAEDTAVYYCAREFDYWGQGTLVTVTSSGGGGSGGGGSGGGGSQSVLAQPPSASGTPGQRVTISCSGSSSNIGSNYVYWYQQLPGTAPKLLIYGNNKRPSGVPDRFSGSKSGTSASLAISGLRSEDEADYYCAAWDDSLNGRVFGGGTKLTVLGGGGSGGGGSGGGGSGVECPPCPAPPVAGPSVFLFPPKPKDTLMISRTPEVTCVVVDVSHEDPEVQFNWYVDGVEVHNAKTKPREEQFNSTFRVVSVLTVVHQDWLNGKEYKCKVSNKGLPAPIEKTISKTKGQPREPQVYTLPPSREEMTKNQVSLTCLVKGFYPSDIAVEWESNGQPENNYKTTPPMLDSDGSFFLYSKLTVDKSRWQQGNVFSCSVMHEALHNHYTQKSLSLSPG
notes: Monospecific antibody (MsAB) against ALK-1; the construct name says scFv-Fc-hIgG2; not shown: human IgG2 Fc (and any linker), implied by the construct name scFv-Fc-hIgG2
With B2, the Kd is 25 nM in experiment [2] and 8.5 nM in experiment [3].

B3: TPP-14696 (13654-13667-scFv-kih-IgG2_Fc) (bispecific antibody)
chain 1: EVQLLESGGGLVQPGGSLRLSCAASGFTFSIYAMSWVRQAPGKGLEWVSAISGSGGSTYYADSVKGRFTISRDNSKNTLYLQMNSLRAEDTAVYYCARDFDYWGQGTLVTVTSSGGGGSGGGGSGGGGSQSVLTQPPSASGTPGQRVTISCSGSSSNIGSNYVYWYQQLPGTAPKLLIYGNINRPSGVPDRFSGSKSGTSASLAISGLRSEDEADYYCAAWDDSLNGRVFGGGTKLTVLGGGGSGGGGSGGGGSGVECPPCPAPPVAGPSVFLFPPKPKDTLMISRTPEVTCVVVDVSHEDPEVQFNWYVDGVEVHNAKTKPREEQFNSTFRVVSVLTVVHQDWLNGKEYKCKVSNKGLPAPIEKTISKTKGQPREPQVYTLPPCREEMTKNQVSLWCLVKGFYPSDIAVEWESNGQPENNYKTTPPMLDSDGSFFLYSKLTVDKSRWQQGNVFSCSVMHEALHNHYTQKSLSLSPG
chain 2: EVQLLESGGGLVQPGGSLRLSCAASGFTFSNAWMNWVRQAPGKGLEWVSSISSSSSYIYYADSVKGRFTISRDNSKNTLYLQMNSLRAEDTAVYYCARAVAAGGMFWGLDQWGQGTLVTVTSSGGGGSGGGGSGGGGSQSVLTQPPSASGTPGQRVTISCSGSRSNIGSNSVHWYQQLPGTAPKLLIYGNSNRPSGVPDRFSGSKSGTSASLAISGLRSEDEADYYCQSYDSSLNDHVVFGGGTKLTVLGGGGSGGGGSGGGGSGVECPPCPAPPVAGPSVFLFPPKPKDTLMISRTPEVTCVVVDVSHEDPEVQFNWYVDGVEVHNAKTKPREEQFNSTFRVVSVLTVVHQDWLNGKEYKCKVSNKGLPAPIEKTISKTKGQPREPQVCTLPPSREEMTKNQVSLSCAVKGFYPSDIAVEWESNGQPENNYKTTPPMLDSDGSFFLVSKLTVDKSRWQQGNVFSCSVMHEALHNHYTQKSLSLSPG
notes: scFv-Fc (kih) heterodimer with IgG2 Fc; also called TPP-14669 (as printed in some places); BsAB TPP-14696
In general, EC50 refers to the midpoint of the concentration-response curve. Turning to B3, the binding result in experiment [4] is on record as “no binding”. Further, the “Agonistic activity in PathHunter U2OS cells EC50” value in experiment [5] came out at 6.3 nM. In experiment [6], this molecule yielded a 50% effective concentration (EC50) of 1.01 nM.

B4: TPP-13654 (484A-M233-M07-scFv-Fc-hIgG2) (Fc fusion)
chain: EVQLLESGGGLVQPGGSLRLSCAASGFTFSIYAMSWVRQAPGKGLEWVSAISGSGGSTYYADSVKGRFTISRDNSKNTLYLQMNSLRAEDTAVYYCARDFDYWGQGTLVTVTSSGGGGSGGGGSGGGGSQSVLTQPPSASGTPGQRVTISCSGSSSNIGSNYVYWYQQLPGTAPKLLIYGNINRPSGVPDRFSGSKSGTSASLAISGLRSEDEADYYCAAWDDSLNGRVFGGGTKLTVLGGGGSGGGGSGGGGSGVECPPCPAPPVAGPSVFLFPPKPKDTLMISRTPEVTCVVVDVSHEDPEVQFNWYVDGVEVHNAKTKPREEQFNSTFRVVSVLTVVHQDWLNGKEYKCKVSNKGLPAPIEKTISKTKGQPREPQVYTLPPSREEMTKNQVSLTCLVKGFYPSDIAVEWESNGQPENNYKTTPPMLDSDGSFFLYSKLTVDKSRWQQGNVFSCSVMHEALHNHYTQKSLSLSPG
notes: as for B2
On to B4, for which the Kd turned out to be 25 nM in experiment [2] and 8.6 nM in experiment [3].

B5: TPP-13667 (484A-M198-J22-scFv-Fc-hIgG2) (Fc fusion)
chain: EVQLLESGGGLVQPGGSLRLSCAASGFTFSNAWMNWVRQAPGKGLEWVSSISSSSSYIYYADSVKGRFTISRDNSKNTLYLQMNSLRAEDTAVYYCARAVAAGGMFWGLDQWGQGTLVTVTSSGGGGSGGGGSGGGGSQSVLTQPPSASGTPGQRVTISCSGSRSNIGSNSVHWYQQLPGTAPKLLIYGNSNRPSGVPDRFSGSKSGTSASLAISGLRSEDEADYYCQSYDSSLNDHVVFGGGTKLTVLGGGGSGGGGSGGGGSGVECPPCPAPPVAGPSVFLFPPKPKDTLMISRTPEVTCVVVDVSHEDPEVQFNWYVDGVEVHNAKTKPREEQFNSTFRVVSVLTVVHQDWLNGKEYKCKVSNKGLPAPIEKTISKTKGQPREPQVYTLPPSREEMTKNQVSLTCLVKGFYPSDIAVEWESNGQPENNYKTTPPMLDSDGSFFLYSKLTVDKSRWQQGNVFSCSVMHEALHNHYTQKSLSLSPG
notes: Monospecific antibody (MsAB) against BMPR-2; the first row says hIgG2; not shown: human IgG2 Fc (and any linker), implied by the construct name scFv-Fc-hIgG2
B5: in experiment [1], the equilibrium dissociation constant (Kd) was 8.8 nM.
